Experimental data taken from paper PMC3718817 (2013).

B1: Gal4AD-Sds22 [S. cerevisiae] / Gal4(1-147)-Glc7 [S. cerevisiae] (parent complex)
chain 1: MDKNSVNKDSEEKDERHKIEVVDDTNPDFITADSELTQDLPDDVEVIDLVHLKIKSLEDLNLYRFKNLKQLCLRQNLIESISEVEVLPHDKIVDLDFYDNKIKHISSNVNKLTKLTSLDLSFNKIKHIKNLENLTDLENLYFVQNSISKIENLSTLKSLKNLELGGNKVHSIEPDSFEGLSNLEEIWLGKNSIPRLINLHPLKNLKILSIQSNKLKKIENLEELTNLEELYLSHNFITKIEGLEKNLKLTTLDVTSNKITSLENLNHLSNLTDIWASFNKIDQSFESLGENLSALSRLETIYLEGNPIQLENKTSYRRKLTMNLPPSLQKIDATYIRG
chain 2: MDSQPVDVDNIIDRLLEVRGSKPGQQVDLEENEIRYLCSKARSIFIKQPILLELEAPIKICGDIHGQYYDLLRLFEYGGFPPESNYLFLGDYVDRGKQSLETICLLLAYKIKYPENFFILRGNHECASINRIYGFYDECKRRYNIKLWKTFTDCFNCLPIAAIIDEKIFCMHGGLSPDLNSMEQIRRVMRPTDIPDVGLLCDLLWSDPDKDIVGWSENDRGVSFTFGPDVVNRFLQKQDMELICRAHQVVEDGYEFFSKRQLVTLFSAPNYCGEFDNAGAMMSVDESLLCSFQILKPAQKSLPRQAGGRKKK

Variants of: B1
Test: two-hybrid assay (β-galactosidase activity); three independent PJ69-4A transformants; parent: 23; read off a plot

| response | Variant |
| --- | --- |
| ~13 | chain 1 MDKNSVNKDSEEKDERHKIEVVDDTNPDFITADSELTQDLPDDVEVIDLVHLKIKSLEDLNLYRLKNLKQLCLRQNLIESISEVEVLPHDKIVDLDFYDNKIKHISSNVNKLTKLTSLDLSFNKIKHIKNLENLTDLENLHFVQNSISKIENLSTLKSLKNLELGGNKVHSIEPDSFEGLSNLEEIWLGKNSIPRLINLHPLKNLKILSTQSNKLKKIENLEELTNLEELYLSHNFITKIEGLEKNLKLTTLDVTSNKITSLENLNHLSNLTDIWASFNKIDQSFESLGENLSALSRLETIYLEGNPIQLENKTSYRRKLTMNLPPSLQKIDATYIRG [chain 1 F65L, chain 1 Y141H, chain 1 I210T] |
| ~11 | chain 1 MDKNSVNKDSEEKDERHKIEVVDDTNPDFITADSELTQDLPDDVEVIDLVHLKIKSLEDLNLYRFKNLKQLCLRQNLIESISEVEVLPHDKIVDLDFYDNKIKHISSNVNKLTKLTSLDLSFNKIKHIKNLENLTDLENLYFVQNSISKIENLSTLKSLKNLELGGNKVHSIEPDSFEGLSNLEEIWLGKNSIPRLINLHPLKNLKILSIQSNKLKKIENLEELTNLEELYLSHNFITKIEGLEKNLKLTTLDVTSNKITSLENLNHLSNLTDIAASFNKIDQSFESLGENLSALSRLETIYLEGNPIQLENKTSYRRKLTMNLPPSLQKIDATYIRG [chain 1 W275A] |
| ~19 | chain 1 MDKNSVNKDSEEKDERHKIEVVDDTNPDFITADSELTQDLPDDVEVIDLVHLKIKSLEDLNLYRFKNLKQLCLRQNLIESISEVEVLPHDKIVDLDFYDNKIKHISSNVNKLTKLTSLDLSFNKIKHIKNLENLTDLENLYFVQNSISKIENLSTLKSLKNLELGGNKVHSIEPDSFEGLSNLEEIWLGKNSIPRLINLHPLKNLKILSIQSNKLKKIENLEELTNLEELYLSHNFITKIEGLEKNLKLTTLDVTSNKITSLENLNHLSNLTAIWASFNKIDQSFESLGENLSALSRLETIYLEGNPIQLENKTSYRRKLTMNLPPSLQKIDATYIRG [chain 1 D273A] |
| ~11 | chain 1 MDKNSVNKDSEEKDERHKIEVVDDTNPDFITADSELTQDLPDDVEVIDLVHLKIKSLEDLNLYRFKNLKQLCLRQNLIESISEVEVLPHDKIVDLDFYDNKIKHISSNVNKLTKLTSLALSFNKIKHIKNLENLTDLENLYFVQNSISKIENLSTLKSLKNLELGGNKVHSIEPDSFEGLSNLEEIWLGKNSIPRLINLHPLKNLKILSIQSNKLKKIENLEELTNLEELYLSHNFITKIEGLEKNLKLTTLDVTSNKITSLENLNHLSNLTDIWASFNKIDQSFESLGENLSALSRLETIYLEGNPIQLENKTSYRRKLTMNLPPSLQKIDATYIRG [chain 1 D119A] |
| ~6 | chain 1 MDKNSVNKDSEEKDERHKIEVVDDTNPDFITADSELTQDLPDDVEVIDLVHLKIKSLEDLNLYRFKNLKQLCLRQNLIGSISEVEVLPHDKIVDLDFYDNKIKHISSNVNKLTKLTSLDLSFNKIKHIKNLENLTDLENLYFVQNSISKIENLSTLKSQKNLELGGNKVHSIEPDSFEGLSNLEEIWLGKNSIPRLINLHPLKNLKILSIQSNKLKKIENLEELTNLEELYLSHNFITKIEGLEKNLKLTTLDVTSNKITSLENLNHLSNLTDIWASFNKIDQSFESLGENLSAISRLETIYLEGNPIQLENKTSYRRKLTMNLPPSLQKIDATYIRG [chain 1 E79G, chain 1 L159Q, chain 1 L295I] |
